In paper PMC5332220 one finds spine/shaft ratio of GluA1-mCh-SspB fluorescence, dark, spine/shaft ratio of GluA1-mCh-SspB fluorescence, light and Kd data, which are given here for one substance.

pKd: −log10 of the molar value. Like-named read-outs stand apart in the source and are kept apart here.

Assay [1] concerns the target SspB_micro (UniProt P45206).
The target in assay [2] is SspB_milli (UniProt P45206).
Assay [3] has as its target SspB_nano (UniProt P45206).
For assay [4], the target named is SspB_micro (UniProt P45206). The experiment in a line: fluorescence polarisation.
The target in assay [5] is SspB_milli (UniProt P45206). The experiment in a line: fluorescence polarisation. On the technique in general: Polarisation of emitted light reports the rotation of a fluorescent probe.
For assay [6], the target named is SspB_nano (UniProt P45206). The experiment in a line: fluorescence polarisation.
Assay [7] has as its target SspB_micro (UniProt P45206). The experiment in a line: fluorescence polarisation. This is another data set of the same source.
Assay [8] deals with SspB_milli (UniProt P45206). The experiment in a line: fluorescence polarisation. This is another data set of the same source.
Assay [9] concerns the target SspB_nano (UniProt P45206). The experiment in a line: fluorescence polarisation. This is another data set of the same source.

As for “sLID (slow Light Inducible Dimer) (designed binder)”, the spine/shaft ratio of GluA1-mCh-SspB fluorescence, dark with SspB_micro [1] turned out to be 1.5; with SspB_milli [2] it was 1.5; with SspB_nano [3], 2.8. In addition, the spine/shaft ratio of GluA1-mCh-SspB fluorescence, light with SspB_micro [1] was 1.8; in the assay with SspB_milli [2], 2.4; with SspB_nano [3] it was 2.9. In addition, the pKd (in general, −log10 of the Kd, conventionally taken in molar units) with SspB_micro [4] was 6.96; with SspB_milli [5] it was 5.52; in the assay with SspB_nano [6], 8.15; with SspB_micro [7], 5.60; in the assay with SspB_milli [8] it was 3.90; with SspB_nano [9] it was 6.51.
